# In PMC7824211:
# Target: recombinant HA Victoria (B/Brisbane/60/2008) fused to an HIS-Tag (influenza B virus B/Brisbane/60/2008 (Victoria lineage))
# Assay: SPR
substance,measurement,value
NKp46-Ig (extracellular portion of human NKp46 fused to the Fc portion of human IgG1) (from UniProt O76036 22-258) (Fc fusion),fold lower affinity than to the HA of IAV,7 fold
